For two molecules, Kd results are on record in article PMC13070007 (2025).

Some targets named below: 28K30K32R; KFNM; 30K32R56G; 30K32R113R.
Common to all, as to experiment: SPR
For orientation: SPR reads the build-up and loss of mass on a sensor chip optically.

A word on the Kd: it is the equilibrium constant for the complex coming apart.

Numbering of substitutions follows the chain as printed.

B1: TRBC1 protein (recombinant) (natural protein)
chain: DLNKVFPPEVAVFEPSEAEISHTQKATLVCLATGFFPDHVELSWWVNGKEVHSGVSTDPQPLKEQPALNDSRYCLSSRLRVSATFWQNPRNHFRCQVQFYGLSENDEWTQDRAKPVTQIVSAEAWGRADCGFTSVSYQQGVLSA
On to B1, for which the results for the Kd with 28K30K32R and in the assay with KFNM were 952 nM and 173 nM, respectively.

B2: TRBC2 protein (recombinant) (natural protein)
chain: B1 chain with N3K, K4N, E9K, F36Y, V135E
As for B2, the Kd was determined as 30 nM with 28K30K32R, 46 nM with 30K32R56G, 61 nM with KFNM and 41 nM with 30K32R113R.
